Reference: the supplement of paper PMC9170038

Test system: MS2 coat protein
Test: apparent KD of MS2 coat protein; designed switch direction (-1 OFF switch, 1 ON switch): -1; higher = weaker reporter binding
Method in brief: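 Designed RNA switches with common flanks were made on Illumina chips by stalled E. coli RNA polymerase. Titration with SNAP-549-labelled MS2 coat protein doubled from 0.7 or 1.5 nM up to 3 µM. Apparent KD is each design's median over clusters after curve-fitting normalised fluorescence.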

[1] = Eterna round: R95, input ligand: microRNA oligo, concentration not stated
[2] = input ligand: microRNA oligo, concentration not stated
[3] = Eterna round: R95, input ligand: FMN 200 uM
[4] = Eterna round: R95, input ligand: none

Row | Sequence | apparent KD of MS2 coat protein [1] | apparent KD of MS2 coat protein (input ligand: FMN 200 uM) | apparent KD of MS2 coat protein (input ligand: none) | apparent KD of MS2 coat protein [2] | apparent KD of MS2 coat protein [3] | apparent KD of MS2 coat protein [4]
1 | GGAUCGAGUGUGAGGAUAUGCUGGUCGUAAGAUCAGCAGAAGGCACAUGAGGAUCACCCAUGUGAAAACGGUCC [Mat - Exclusion 4 - JL Mod - D72] (puzzle: Brourd's mod of Exclusion 4) | 25.6 nM | – | – | – | – | –
2 | GACCAGGUAGGAUAUGCUGGGUCGGACUUGAGGAUCACCCAAGUGGCCAAAGUGCGUCCCGCAGAAGGGCCGAAAA [Inanorxeti] (Eterna round: R97, puzzle: Exclusion 5) | – | 81.6 nM | 827 nM | – | – | –
3 | GUCUUACAUGAGGAUCACCCAUGUGAGGAUAUGAGUGGUGCUGCUAGGUAGUAUAGACUCAGAAGGCGCAUGAU [Malcxlusion 3 - Jieux - Exclusion 1] (Eterna round: R97, puzzle: Exclusion 1) | – | 37.7 nM | 22.6 nM | – | – | –
4 | GGAUCACAUGUCAGGAUAUGCUGGUCCUUGGAUCAGCAGAAGGGACAUGAGGAUCACCCAUGUCAUGAAGAUCC [Eli bmx4 4.80] (Eterna round: R97, puzzle: Brourd's mod of Exclusion 4) | – | 1020 nM | 139 nM | – | – | –
5 | ACGCAUUGCCUUUGGUAGUGCGUUACAUGAGGAUCACCCAUGUAGGAUAUGGUAGGCAAAGCUUACCAGAAGGACAUGAUAAUU [Mat - Exclusion NG 3 - Mod of JL - D5] (Eterna round: R96, puzzle: Exclusion NG 3) | – | – | – | 41.8 nM | – | –
6 | UCAUGUUAGCAGGAUAUGCUAUUUAUUUUUUAUGCAGAAGGGCUUACAUGAGGAUCACCCAUGUGUUAGGUUUU [JR_E6_Sub073] (puzzle: Exclusion 6) | 29.7 nM | – | – | – | – | –
7 | UACACUGCAUGAGGAUCAAACAUGAGGAUCACCCAUGUGUAGCAAGCUUUUUGCUCGUCUUAUAAAUAUGUAGUGUA [Electric Eye 10 - Jieux - Sensor, turn-off variant 1] (Eterna round: R97, puzzle: Sensor, turn-off variant 1) | – | 13.4 nM | 12.9 nM | – | – | –
8 | CUUUUGUGAGGAUAUCAGUAGUAAAAAUAUAAAAUUACUACUGAGAAGGCACAUGAGGAUCACCCAUGUUCCUC [salish99_ex4_r3_020] (puzzle: Exclusion 4) | 37.2 nM | – | – | – | – | –
9 | UAUGAUUUAGGAUAUUGUACUGCUGACAUGAGGAUCACCCAUGUAUGCUAACUCGGCCGUCGAGAAGGAAAUUAUG [BotMod 28 - Jieux - Exclusion 5] (Eterna round: R97, puzzle: Exclusion 5) | – | 26.1 nM | 52.6 nM | – | – | –
10 | CUAAAUCAUGUAGGAUAUGCGUGGCAAAGCUAUGCAGAAGGACAUGAGGAUCACCCAUGUGCUUCCGUCUGAGUACAGACGGUA [Mat - Exclusion NG 1 - Mod of JL - D22] (Eterna round: R96, puzzle: Exclusion NG 1) | – | 622 nM | 98.2 nM | 72.9 nM | – | –
11 | UAUAUAUAGUAAGGAUAUGUAUUAAUUCUAUAAACAGAAGGUACUGACAUGAGGAUCACCCAUGUUUUAGUGUGGGCAUGUAGA [JMF's solution 82] (Eterna round: R96, puzzle: Exclusion NG 1) | – | – | – | 41.3 nM | – | –
12 | CUCAUGUGAGGAUAUCAGUAGUGAUACGAUAGUAUUACUGCUGAGAAGGUACAUGAGGAUCACCCAUGUUCCUC [Exclusion 4 - Mod Omei Ex4 344 mod 4 v.3] (puzzle: Exclusion 4) | 26.9 nM | – | – | – | – | –
13 | CUCUGCACGCUGCGGUCCUACAUGAGGAUCACCCAUGUGGUCUGGUGGCGUGGGUCGCCGGACUUGGCUCGUCUUGA [salish99_S_TOV1_R5_046] (Eterna round: R97, puzzle: Sensor, turn-off variant 1) | – | 19 nM | 18.7 nM | – | – | –
14 | AGCUGUGGCCGAGGAUAUCCAACCUUAAAUACCGACGUAUAGUCGGACAUGAGGAUCACCCAUGUGGAGAAGGCGGUCUCAGCA [Eli eng2 - 039] (Eterna round: R96, puzzle: Exclusion NG 2) | – | 62.5 nM | 47.1 nM | 28 nM | – | –
15 | AUCGUACUAGGAUAUUCGGAAACGGACAUGAGGAUCACCCAUGUGAAUAUCCGCAGUCCAGAAGAAGGAGUGAACG [EX5 C.27] (Eterna round: R97, puzzle: Exclusion 5) | – | 33.5 nM | 17.9 nM | – | – | –
16 | AAAUUGUGAGGAUAUUCGAUGAACUCGGAGACGAGUUUAUCGGAGAAGGCACAUGAGGAUCACCCAUGUUCCUU [Mat - Exclusion 4 - JL Mod - D23] (Eterna round: R97, puzzle: Exclusion 4) | – | 102 nM | 18.5 nM | – | – | –
17 | CAGUACUGAGGAUAUACAUGAGGAUCACCCAUGUGAAAUGCAUAGGAAACUAUGCUAUGUAGAAGGCAGUACUG [Eli x3 4.03] (Eterna round: R97, puzzle: Exclusion 3) | – | 108 nM | 18.5 nM | – | – | –

Row | Sequence | apparent KD of MS2 coat protein [1] | apparent KD of MS2 coat protein (input ligand: FMN 200 uM) | apparent KD of MS2 coat protein (input ligand: none) | apparent KD of MS2 coat protein [2] | apparent KD of MS2 coat protein [3] | apparent KD of MS2 coat protein [4]
18 | CCGGAAAUAGAGGAUAUAGGACUCGAUAGAGUCCUAGAAGGCUAUACAUGAGGAUCACCCAUGUGUCCUACCGG [Fiskers Ex 6 - 64] (puzzle: Exclusion 6) | 13.6 nM | – | – | – | 40.7 nM | 13.4 nM
19 | AAUAAUGAGUAGGAUAUCACUAGCGAUAGCUAGUGAGAAGGACUCACAUGAGGAUCACCCAUGUGUUCCAAUAA [Mod3 Ex6/6-A4 by Brourd] (Eterna round: R97, puzzle: Exclusion 6) | – | 195 nM | 50.8 nM | – | – | –
20 | CUUCAAUCACCAGAGCUCACACUUAUACCUGCUCUGGUGACAUGAGGAUCACCCAUGUUUUUUGCCCGUCUUAUCUU [Sensor v3, turn-off variant 2 (MOD of Leso v.3)] (puzzle: Sensor v3, turn-off variant 2) | 33 nM | – | – | – | 86.6 nM | 97.4 nM
21 | CGCAUGCAAGGAUAUACUUGCAGUGAUAUUCGAUAAAGUCUACUUGAGGAUCACCCAAGUAGAAGGUGCAUGCG [Exclusion 2 (Mod6.1 JL EX2 4.74 Vienna UCT mod of Mamaed)] (Eterna round: R97, puzzle: Exclusion 2) | – | 33.3 nM | 25 nM | – | – | –
22 | ACAUGUAAUGUAGGAUAUUUUACACAUGAGGAUCACCCAUGUGACCAGAGGCAUUGCUAUGAGUAAAAGAAGGGUAUGUACAUG [Ex NG2 #58] (Eterna round: R96, puzzle: Exclusion NG 2) | – | 47 nM | 42.3 nM | 27.8 nM | – | –
23 | UAUUUACAUGAGGAUCACCCAUGUCAGGAUAUGCGUCUAUCGUCGAAAGACGAUAGCCGCAGAAGGGACAAUAU [LRO-Excl01-21 mod derived from EliFisker 4.24] (Eterna round: R97, puzzle: Exclusion 1) | – | 87.3 nM | 58.1 nM | – | – | –
24 | GACAUCGCAGGAUAUUAGGGUUUGUACAUGAGGAUCACCCAUGUUAAUUGGGUUAAUGUUUAAGAAGGGCGGUGUC [JR_EX5_Sub017] (Eterna round: R97, puzzle: Exclusion 5) | – | 528 nM | 383 nM | – | – | –
25 | GGUACUCAAAGAGUACCAAUACGAACAUGAGGAUCACCCAUGUAGGAUAUGCUACUCAAAGAGUAGCAGAAGGACGUGUACCCU [Far Half Aptamer v2] (Eterna round: R96, puzzle: Exclusion NG 3) | – | 59.9 nM | 24.8 nM | 21.9 nM | – | –
26 | GAGACACAUGAGGAUCACCCAUGUGAGGAUAUGCGAAGGACCAAAUUAAGAAUUAAAGGCAGAAGGCACAUAAA [Exclusion 1 V4] (puzzle: Exclusion 1) | 35.5 nM | – | – | – | 36.8 nM | 29.3 nM
27 | AAAUAAUAGAUAAAAUAAUACAUGAGGAUCACCCAUGUGGGAUGUUGAGGGUGAUACAGGCUUUUUGCUCGUCUUAU (puzzle: Sensor v3, turn-off variant 1) | 155 nM | – | – | – | 434 nM | 207 nM
28 | UAAAUAAAUGUAGGAUAUCUGCACGUGUAGUGCAGAGAAGGACAUGAGGAUCACCCAUGUAUAGUAGCUUCGGCUACAAAUAAU [ENG1-C3] (Eterna round: R96, puzzle: Exclusion NG 1) | – | 110 nM | 88.8 nM | 69.3 nM | – | –
29 | UUUAAUUUUUUUUUUUUACAAGCUUUUUGCUCGUCUUAUACAUGAGGAUCACCCAUGUGGGUAGAAGGUAAAUUAUC [JMF 66] (puzzle: Sensor v3, turn-off variant 2) | 64.9 nM | – | – | – | 24.3 nM | 22.4 nM
30 | ACCAAUCAUGUAGGAUAUGCGUGGCGAAGCUAUGCAGAAGGACAUGAGGAUCACCCAUGUGCUUCCGUCUGCGUACAGACGGUA [Mat - Exclusion NG 1 - Mod of JL - D17] (Eterna round: R96, puzzle: Exclusion NG 1) | – | 49.2 nM | 92.3 nM | 38.3 nM | – | –
31 | AAAGUCGGAGGAUAUACAAUAGAUGACAAUAAAGUUGGAGUACAUGAGGAUCACCCAUGUAGAAGGCCGAGAAA [Swimmer becomes a laser gun] (puzzle: Exclusion 2) | 17.3 nM | – | – | – | 28.2 nM | 20.6 nM
32 | CGUGCGUAUGUGAGGAUAUGCUGGUCCUUGGAUCAGCAGAAGGCACAUGAGGAUCACCCAUGUGGUGUCGUACU [salish99_Bmod_Ex4_017] (puzzle: Brourd's mod of Exclusion 4) | 161 nM | – | – | – | – | –
33 | CUCAUGUGAGGAUAUCACAUAGCGUCACGGCUGUAACAUUUUGAGAAGGCACAUGAGGAUCACCCAUGUGACAC [Eternabot (L2) Solution 79] (Eterna round: R97, puzzle: Exclusion 4) | – | 104 nM | 46.6 nM | – | – | –
